Test results as given in paper PMC10143413.
Blank lines part the entries; values can stand above or below the substance they belong to.

Experiments:
[1] = target: Aldolase A, purified from rabbit skeletal muscle (rabbit) (UniProt P00883); assay: SPR; Biacore T200, 25 °C; GAPDH, LDH or aldolase A amine-coupled to a CM5 chip, PKM1 as analyte in 0.05 M potassium phosphate buffer pH 7.4, 10 µL/min for 5 min; global fit to the 1:1 binding model
[2] = target: Pyruvate kinase PKM1, purified from rabbit skeletal muscle (rabbit) (UniProt P11974); assay: SPR; Biacore T200, 25 °C; PKM1 amine-coupled to a CM5 chip, creatine kinase as analyte in 0.05 M potassium phosphate buffer pH 7.4, 10 µL/min for 5 min; global fit to the 1:1 binding model
Sequence of Pyruvate kinase PKM1, purified from rabbit skeletal muscle (rabbit) (P11974 whole entry): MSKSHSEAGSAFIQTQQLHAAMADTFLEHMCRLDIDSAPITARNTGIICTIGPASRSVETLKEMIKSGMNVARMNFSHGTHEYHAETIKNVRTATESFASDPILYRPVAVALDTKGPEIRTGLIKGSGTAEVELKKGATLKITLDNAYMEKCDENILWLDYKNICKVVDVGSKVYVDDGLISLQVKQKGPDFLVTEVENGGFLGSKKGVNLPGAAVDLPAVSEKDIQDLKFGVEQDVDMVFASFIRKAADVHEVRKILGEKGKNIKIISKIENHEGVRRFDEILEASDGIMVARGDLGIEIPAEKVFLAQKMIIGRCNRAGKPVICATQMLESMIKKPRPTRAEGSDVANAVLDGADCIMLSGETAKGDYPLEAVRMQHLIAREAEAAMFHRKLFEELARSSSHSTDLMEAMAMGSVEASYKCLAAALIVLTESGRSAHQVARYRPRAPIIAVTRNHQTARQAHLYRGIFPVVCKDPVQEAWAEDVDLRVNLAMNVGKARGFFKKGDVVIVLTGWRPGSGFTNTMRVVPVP

[3] = target: Lactate dehydrogenase, purified from rabbit skeletal muscle (rabbit) (UniProt P13491); assay: SPR; Biacore T200, 25 °C; GAPDH, LDH or aldolase A amine-coupled to a CM5 chip, PKM1 as analyte in 0.05 M potassium phosphate buffer pH 7.4, 10 µL/min for 5 min; global fit to the 1:1 binding model

Sequence of Pyruvate kinase PKM1, purified from rabbit skeletal muscle (P11974 whole entry): as above
Sequence of Pyruvate kinase PKM1, purified from rabbit skeletal muscle, P11974-1 1-531 (enzyme; other documents disagree on this pair) (P11974 whole entry): as above
Sequence of Aldolase A, purified from rabbit skeletal muscle (rabbit) (P00883 whole entry): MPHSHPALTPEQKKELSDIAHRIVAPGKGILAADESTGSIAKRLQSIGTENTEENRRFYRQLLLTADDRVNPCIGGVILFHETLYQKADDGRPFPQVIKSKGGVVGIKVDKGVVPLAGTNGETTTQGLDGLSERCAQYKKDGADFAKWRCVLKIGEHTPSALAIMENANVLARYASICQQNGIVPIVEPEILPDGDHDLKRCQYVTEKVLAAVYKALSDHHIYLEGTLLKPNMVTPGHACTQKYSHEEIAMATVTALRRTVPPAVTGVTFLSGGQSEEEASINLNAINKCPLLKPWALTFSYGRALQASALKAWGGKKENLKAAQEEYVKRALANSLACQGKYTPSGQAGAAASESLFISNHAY

Kd [1]: 1.41 µM
koff [1]: 0.00238 s⁻¹
kon [1]: 1690 M⁻¹ s⁻¹
Substance: Pyruvate kinase PKM1, purified from rabbit skeletal muscle, P11974-1 1-531 (enzyme; other documents disagree on this pair)

Kd [2]: 0.0107 µM
koff [2]: 0.000924 s⁻¹
kon [2]: 86400 M⁻¹ s⁻¹
Substance: Creatine kinase from rabbit muscle (from UniProt P00563 1-381) (enzyme)

Kd [3]: 4.8 µM
koff [3]: 0.00657 s⁻¹
kon [3]: 1370 M⁻¹ s⁻¹
Substance: Pyruvate kinase PKM1, purified from rabbit skeletal muscle (from UniProt P11974-1 1-531) (enzyme)
